Data from the supplement of paper PMC6757056.
± gives the standard deviation of the averaged measurements.

B1: library; a variant is named by its letters at N, in order (parent)
chain: GCUGUCACCGGUGUAUUACCCUAGUGGUCGACCGGUCUGAUGAGUCUNNNNNNAGACGAAACAGC

Legend:
hypoxanthine [1] = variants of: B1; test: FACS-Seq fitted mean relative fluorescence mCherry/BFP without ligand (log10 relative fluorescence); ligand: hypoxanthine (xanthine aptamer); higher = higher reporter protein expression; details: HEK293T, ligand present: no
How it was run: (§1)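 After lentiviral transduction, HEK293T library cells bearing an mCherry ribozyme-switch reporter and an EF1α-BFP marker were enriched. They were then held for 48 h with or without ligand and sorted by mCherry/BFP into 6 bins, and each bin's genomic DNA was PCR-amplified, barcoded and MiSeq-sequenced. Fluorescence is expressed as a normalized fitted mean: the normal mean of log10(mCherry/BFP) bin counts, scaled to five spiked-in control ribozymes.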

hypoxanthine [2] = variants of: B1; test: normalized RNA/DNA level with ligand (relative to sTRSVctl = 100) (log10 (% of sTRSVctl)); ligand: hypoxanthine (xanthine aptamer); higher = less ribozyme self-cleavage, higher mRNA level; details: ligand concentration (+) RNA-Seq: 5 mM, HEK293T, reporter: mCherry (pCS4076), ligand present: yes
How it was run: (§2)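 RNA level was computed as RNA reads over DNA reads divided by a spiked-in non-cleaving sequence or by the top sequences, then scaled and log-transformed. Scaling was ×100 with log10, the top group was 25 sequences, and the threshold was ≥100 DNA reads. The reads came from HEK293T cells transfected at 4 µg per 6-well well with ribozyme switch library plasmids (mCherry, or eGFP in some ligand experiments). Total RNA was extracted with EDTA 72 h after transfection, with any ligand added 1 h before it.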

hypoxanthine [3] = variants of: B1; test: normalized RNA/DNA level without ligand (relative to sTRSVctl = 100) (log10 (% of sTRSVctl)); ligand: hypoxanthine (xanthine aptamer); higher = less ribozyme self-cleavage, higher mRNA level; details: HEK293T, reporter: mCherry (pCS4076), ligand present: no
How it was run: as §2

hypoxanthine [4] = variants of: B1; test: FACS-Seq fitted mean relative fluorescence mCherry/BFP with ligand (log10 relative fluorescence); ligand: hypoxanthine (xanthine aptamer); ligand concentration (+) FACS-Seq: 5 mM; higher = higher reporter protein expression; details: HEK293T, ligand present: yes
How it was run: as §1

Variant: AUGGUC
- FACS-Seq fitted mean (log10) (hypoxanthine [1]): 0.812 ± 0.048
- normalized RNA/DNA level with ligand (log10) (hypoxanthine [2]): 2 ± 0.036
- normalized RNA/DNA level without ligand (log10) (hypoxanthine [3]): 1.92 ± 0.033
- FACS-Seq fitted mean (log10) (hypoxanthine [4]): 0.6851 ± 0.0041

Variant: AUCCUG
- FACS-Seq fitted mean (log10) (hypoxanthine [1]): 0.0565 ± 0.03
- normalized RNA/DNA level with ligand (log10) (hypoxanthine [2]): 1.944 ± 0.013
- normalized RNA/DNA level without ligand (log10) (hypoxanthine [3]): 1.54 ± 0.086
- FACS-Seq fitted mean (log10) (hypoxanthine [4]): 0.437 ± 0.048

Variant: AUCCUC
- FACS-Seq fitted mean (log10) (hypoxanthine [1]): -0.169 ± 0.0024
- normalized RNA/DNA level with ligand (log10) (hypoxanthine [2]): 2.021 ± 0.0097
- normalized RNA/DNA level without ligand (log10) (hypoxanthine [3]): 1.97 ± 0.04
- FACS-Seq fitted mean (log10) (hypoxanthine [4]): -0.394 ± 0.056

Variant: GUGCGU
- FACS-Seq fitted mean (log10) (hypoxanthine [1]): 0.221 ± 0.019
- normalized RNA/DNA level with ligand (log10) (hypoxanthine [2]): 1.972 ± 0.018
- normalized RNA/DNA level without ligand (log10) (hypoxanthine [3]): 1.71 ± 0.044
- FACS-Seq fitted mean (log10) (hypoxanthine [4]): 0.479 ± 0.04

Variant: GUGCGG
- FACS-Seq fitted mean (log10) (hypoxanthine [1]): 0.103 ± 0.016
- normalized RNA/DNA level with ligand (log10) (hypoxanthine [2]): 1.88 ± 0.033
- normalized RNA/DNA level without ligand (log10) (hypoxanthine [3]): 1.38 ± 0.081
- FACS-Seq fitted mean (log10) (hypoxanthine [4]): 0.585 ± 0.033

Variant: AUGAUG
- FACS-Seq fitted mean (log10) (hypoxanthine [1]): -0.144 ± 0.025
- normalized RNA/DNA level with ligand (log10) (hypoxanthine [2]): 1.794 ± 0.0069
- normalized RNA/DNA level without ligand (log10) (hypoxanthine [3]): 1.32 ± 0.027
- FACS-Seq fitted mean (log10) (hypoxanthine [4]): 0.458 ± 0.12

Variant: AUGAUA
- FACS-Seq fitted mean (log10) (hypoxanthine [1]): -0.373 ± 0.027
- normalized RNA/DNA level with ligand (log10) (hypoxanthine [2]): 1.9 ± 0.036
- normalized RNA/DNA level without ligand (log10) (hypoxanthine [3]): 1.736 ± 0.013
- FACS-Seq fitted mean (log10) (hypoxanthine [4]): -0.00691 ± 0.00025

Variant: GUCUCG
- FACS-Seq fitted mean (log10) (hypoxanthine [1]): 0.392 ± 0.059
- normalized RNA/DNA level with ligand (log10) (hypoxanthine [2]): 1.94 ± 0.094
- normalized RNA/DNA level without ligand (log10) (hypoxanthine [3]): 1.7 ± 0.022
- FACS-Seq fitted mean (log10) (hypoxanthine [4]): 0.575 ± 0.11

Variant: GUCUCU
- FACS-Seq fitted mean (log10) (hypoxanthine [1]): 0.359 ± 0.039
- normalized RNA/DNA level with ligand (log10) (hypoxanthine [2]): 1.97 ± 0.039
- normalized RNA/DNA level without ligand (log10) (hypoxanthine [3]): 1.98 ± 0.092
- FACS-Seq fitted mean (log10) (hypoxanthine [4]): 0.302 ± 0.052

Variant: UUGACG
- FACS-Seq fitted mean (log10) (hypoxanthine [1]): 0.486 ± 0.025
- normalized RNA/DNA level with ligand (log10) (hypoxanthine [2]): 1.93 ± 0.057
- normalized RNA/DNA level without ligand (log10) (hypoxanthine [3]): 1.831 ± 0.0085
- FACS-Seq fitted mean (log10) (hypoxanthine [4]): 0.5104 ± 0.00062

Variant: UUGACA
- FACS-Seq fitted mean (log10) (hypoxanthine [1]): 0.459 ± 0.015
- normalized RNA/DNA level with ligand (log10) (hypoxanthine [2]): 1.95 ± 0.046
- normalized RNA/DNA level without ligand (log10) (hypoxanthine [3]): 1.87 ± 0.026
- FACS-Seq fitted mean (log10) (hypoxanthine [4]): 0.491 ± 0.048

Variant: UUGCGG
- FACS-Seq fitted mean (log10) (hypoxanthine [1]): -0.08 ± 0.07
- normalized RNA/DNA level with ligand (log10) (hypoxanthine [2]): 1.99 ± 0.062
- normalized RNA/DNA level without ligand (log10) (hypoxanthine [3]): 1.91 ± 0.044
- FACS-Seq fitted mean (log10) (hypoxanthine [4]): -0.606 ± 0.083

Variant: UUGGCG
- FACS-Seq fitted mean (log10) (hypoxanthine [1]): 0.088 ± 0.024
- normalized RNA/DNA level with ligand (log10) (hypoxanthine [2]): 2.01 ± 0.034
- normalized RNA/DNA level without ligand (log10) (hypoxanthine [3]): 1.87 ± 0.037
- FACS-Seq fitted mean (log10) (hypoxanthine [4]): 0.648 ± 0.069

Variant: AUCUAA
- FACS-Seq fitted mean (log10) (hypoxanthine [1]): 0.268 ± 0.023
- normalized RNA/DNA level with ligand (log10) (hypoxanthine [2]): 1.905 ± 0.019
- normalized RNA/DNA level without ligand (log10) (hypoxanthine [3]): 1.78 ± 0.022
- FACS-Seq fitted mean (log10) (hypoxanthine [4]): 0.411 ± 0.03

Variant: AUCUUG
- FACS-Seq fitted mean (log10) (hypoxanthine [1]): 0.269 ± 0.0029
- normalized RNA/DNA level with ligand (log10) (hypoxanthine [2]): 1.846 ± 0.015
- normalized RNA/DNA level without ligand (log10) (hypoxanthine [3]): 1.59 ± 0.039
- FACS-Seq fitted mean (log10) (hypoxanthine [4]): 0.48 ± 0.04

Variant: UUCUGG
- FACS-Seq fitted mean (log10) (hypoxanthine [1]): 0.955 ± 0.026
- normalized RNA/DNA level with ligand (log10) (hypoxanthine [2]): 1.931 ± 0.0039
- normalized RNA/DNA level without ligand (log10) (hypoxanthine [3]): 1.8 ± 0.023
- FACS-Seq fitted mean (log10) (hypoxanthine [4]): 0.764 ± 0.068

Variant: GUCGAA
- FACS-Seq fitted mean (log10) (hypoxanthine [1]): 0.322 ± 0.039
- normalized RNA/DNA level with ligand (log10) (hypoxanthine [2]): 1.92 ± 0.034
- normalized RNA/DNA level without ligand (log10) (hypoxanthine [3]): 1.69 ± 0.021
- FACS-Seq fitted mean (log10) (hypoxanthine [4]): 0.22 ± 0.072

Variant: GUCGAG
- FACS-Seq fitted mean (log10) (hypoxanthine [1]): 0.248 ± 0.065
- normalized RNA/DNA level with ligand (log10) (hypoxanthine [2]): 1.81 ± 0.062
- normalized RNA/DNA level without ligand (log10) (hypoxanthine [3]): 1.41 ± 0.072
- FACS-Seq fitted mean (log10) (hypoxanthine [4]): 0.65 ± 0.073
